Measured values published in the nanobody polyreactivity screen of Harvey et al. (2022).

Experiment: yeast display, Sf9 membrane polyspecificity reagent, FACS + sequencing; frameworks hold sequencing errors
Procedure, shortened: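 Genes from sorted yeast were amplified by colony PCR, read by MiSeq 2 × 250 sequencing and filtered on CDR length. These cells carried a synthetic nanobody library in Saccharomyces cerevisiae BJ5465 and were sorted by FACS into low and high (top ~1%) gates on anti-HA and streptavidin fluorescence. Polyreactivity is labelled according to the gate of origin.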

Row | Sequence | polyreactivity (PSR sort gate)
1 | QVQLVESCGGLVQAGGSLRLSCAASGSIFVGNAMGWYRQAPGKERELVAAIDASGGNTYYADSVKGRFTISRDNAKNTVYLQMNSLKPEDTAVYYCNKYGYWWWGTRESDYWGQGTQVTVSS | high polyreactivity
2 | QVQLVESCGGLVQAGGSLRLSCAASGSTFAGYVMGWYRQAPGKERQFVAAISTSGGRTYYADSVKGRFTISRDNAKNTVYLQMNSLKPEDTAVYYCAARSVTYGGLGLYGYWGQGTQVTVSS | high polyreactivity
3 | QVQLVESCGGLVQAGGSLRLSCAASGSTFASYAMGWYRQAPGKEREFVAAISRSGGSTYYADSVKGRFTISRDNAKNTVYLQMNSLKPEDTAVYYCAARSPSADEYYYWGQGTQVTVSS | low polyreactivity
4 | QVQLVESCGGLVQAGGSLRLSCAASGSTFEEYAMGWYRQAPGKERELVASIRWSGGRTYYADSVKGRFTISRDNAKNTVYLQMNRLKPEDTAVYYCNKDYYITLHESEGKGGEMDYWGQGTQVTVSS | low polyreactivity
5 | QVQLVESCGGLVQAGGSLRLSCAASGSTFINYAMGWYRQAPGKERELVAAYAYSVKGRFTISRDNAKITVYLQMKSLKPEDTAVYYCNAVTGDWGQGTQVTVSS | low polyreactivity
6 | QVQLVESCGGLVQAGGSLRLSCSASGSTFVINAMGWYRQAPGKERELVAAISSGDNTNYADSVKGRFTISRDNAKNTVYLQMNSLKPEETAVYYCAALPAYLDYGARRSMDYWGQGTQVTVSS | low polyreactivity
7 | QVQLVESCGRLVQAGGSLRISCAASGYTFSYYAMGWYRQAHGKERELVAAINYSGGRTYYADSVKGRFTISRDNAKNNVYLQMNSLKPEDTAVYYCSAYTRNGEYDYWGQGTQVTVSS | high polyreactivity
8 | QVQLVESCRGLVQAGGSLRLICAASGLTFRYYSMGWYRQAPGKERELVASISWCGASTYYADSVKGRFTISRDNAKNTVYLQMISLKPEDTAVYYCNAGYSGSYDYWGQGTQVTVSS | high polyreactivity
9 | QVQLVESDGGLVQAGGSLRLSCAASGIIFGYYVMGWYRPAPGKERELVASITSGGSTNYADSVKGRFTISRDNAKNTVYFQMNSLKPEDTAVYYCAAEERTDTIPGWRYPHDYWGQGTQVTVSS | low polyreactivity
10 | QVQLVESGACLVQAGGRLRLSCAASGRICGLNAMVWYRQAPGKERELVASITYSGGSTYYADSVKGRFTISRDNAKNTVYLQMNSLKPEYTADYYCAADSWYYWYSTYDYWGQGTQVTVSS | high polyreactivity
11 | QVQLVESGACLVQAGGSLRLSCAASGGIFYYYAMGWYRQAPGKERELVAVISPGGGRTYYADSVKGRFTISRDIAKNTVYLQKNSLKPEDTAVYYCARDSPGDGGREVARGSYNYWGQGTQVTVSS | high polyreactivity
12 | QVQLVESGACLVQAGGSLRLSCAASGITLVNYAMGWYRQAPGKERELVAAISASGGSTYYADSVKGRFTISRDNAKNNVYLQMNSLKPEDTAVYYCAAEEEEFIYDYWGQGTQVTVSS | high polyreactivity
13 | QVQLVESGAGIVQAGGSLRLSCAASGLTFTYYAMGWYRQAPGKERELVAAISRSGTGTYYADSVKGRFTISRDNAKNTVYLQMNSLTAEDTAVYYCNAVVRTYGYDYWGQGTQVTVSS | high polyreactivity
14 | QVQLVESGAGIVQAGGSLRLSCAASGRIFSDYTMGWYRQAPGKERELVAAIDWSGGNTYYADSVKGRFTISRDNAKNTVYLQMNSLKPEDTAVYYCNADWTYPSAEREYWGQGTQVTVSS | low polyreactivity
15 | QVQLVESGAGLGQAGGSLRLSCAASGSNDIYAMGWNRQEPGKEREFVAAISYSSGSTYYADSVKGRFTISRDNAKNTVFLQMNSLIPVDTAVYYCAAVWQAGVYRYYYWGQGTQVTVSS | high polyreactivity
16 | QVQLVESGAGLVHAGGSLRLSCAASGRIFGINAMGWYRQAPGKERELVAAINWSGGSTYYADSVKGRFTISRDNAKNTVYLQMNSVKPEDTAVYYCAAQKYKRVGYWGQGTQVTVSS | high polyreactivity
17 | QVQLVESGAGLVHAGGSLRLSCAASGRTFSSNAMGGYRQAPGKERELVAGITWGGGSTYYADSVKGRFTISRDNAKNTVYLQMYSLKPEDTAVYYCAKSAGKRGYQVDYWVQGTQVTVSS | high polyreactivity
